The target of data set [1] is At3g16990 fusion protein expressed from pVP15.
The target of data set [2] is At3g03410 fusion protein expressed from pVP14.
Data set [3] deals with His6-tetraCys-X-MBP protease substrate 22-F [MBP: P0AEX9].
Data set [4] deals with His6-tetraCys-X-MBP protease substrate 26-F [MBP: P0AEX9].
Data set [5] has as its target His6-tetraCys-X-MBP protease substrate 21-F [MBP: P0AEX9].
For data set [6], the target named is His6-tetraCys-X-MBP protease substrate 24-F [MBP: P0AEX9].
Data set [7] addresses His6-tetraCys-X-MBP protease substrate 25-F [MBP: P0AEX9].
For data set [8], the target named is His6-tetraCys-X-MBP protease substrate 23-F [MBP: P0AEX9].

B1: tobacco etch virus (TEV) protease (protein)
chain: GESLFKGPRDYNPISSTICHLTNESDGHTTSLYGIGFGPFIITNKHLFRRNNGTLLVQSLHGVFKVKNTTTLQQHLIDGRDMIIIRMPKDFPPFPQKLKFREPQREERICLVTTNFQTKSMSSMVSDTSCTFPSSDGIFWKHWIQTKDGQCGSPLVSTRDGFIVGIHSASNFTNTNNYFTSVPKNFMELLTNQEAQQWVSGWRLNADSVLWGGHKVFMSKPEEPFQPVKEATQLMNELVYSQ
Take B1: the “fluorescence anisotropy over time” value in data set [1] is on record as “a time-dependent decrease in anisotropy was observed”; in data set [2] it was “time-dependent decreases in anisotropy”. Moreover, the relative rate of reaction (initial proteolysis rate by fluorescence anisotropy, normalised to the cognate substrate) (relative rate) was 0 in data set [3]; 1 in data set [4]; 0.01 in data set [5]; -0.01 in data set [6]; 0 in data set [7]; -0.02 in data set [8]. Further, the “specific reaction rate (slope of initial proteolysis rate versus protease concentration)” value in data set [4] is “TEV protease; 17.3±0.7”. Also, the “fluorescence anisotropy and SDS-PAGE” value in data set [5] is on record as “underwent a minor amount of proteolysis”.

The record behind these values is patent US20050227306.
